Results reported in US20180228802A1.
Numbering of substitutions follows the chain as printed. Each block holds one binder with its values, some of them ahead of it.

Assays:
PD-1 [1] = assay: competition binding, 1st experiment; rank among the clones; competitor not given
PD-1 [2] = assay: competition binding, 2nd experiment; rank among the clones; competitor not given
PD-1 [3] = assay: FACS; rank of the clone among the humanized BAP049 clones; cells and conditions not described in this filing

Sequence of PD-1 (chain, as listed by the source limits assumed): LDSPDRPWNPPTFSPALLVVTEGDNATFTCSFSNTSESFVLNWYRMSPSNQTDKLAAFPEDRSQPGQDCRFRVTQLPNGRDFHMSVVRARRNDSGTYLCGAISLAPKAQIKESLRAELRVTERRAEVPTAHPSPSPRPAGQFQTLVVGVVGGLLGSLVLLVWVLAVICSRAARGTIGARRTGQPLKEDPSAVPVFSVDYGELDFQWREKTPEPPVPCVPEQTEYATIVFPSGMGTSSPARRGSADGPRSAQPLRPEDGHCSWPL

B1: Clone No. 1 (antibody, human IgG4 S228P, kappa, V domains shown)
VH: EVQLVQSGAEVKKPGESLRISCKGSGYTFTTYWMHWVRQATGQGLEWMGNIYPGTGGSNFDEKFKNRVTITADKSTSTAYMELSSLRSEDTAVYYCTRWTTGTGAYWGQGTTVTVSS
VL: EIVLTQSPATLSLSPGERATLSCKSSQSLLDSGNQKNFLTWYQQKPGQAPRLLIYWASTRESGVPSRFSGSGSGTEFTLTISSLQPDDFATYYCQNDYSYPYTFGQGTKVEIKR
Competition Binding, 1st exp. (ranking) (PD-1 [1]): 7
Competition Binding, 2nd exp. (ranking) (PD-1 [2]): 2
Ranking, FACS data (PD-1 [3]): 2

B2: Clone No. 12 (antibody, human IgG4 S228P, kappa, V domains shown)
VH: B1 VH
VL: DIQMTQSPSSLSASVGDRVTITCKSSQSLLDSGNQKNFLTWYLQKPGQSPQLLIYWASTRESGVPSRFSGSGSGTDFTFTISSLEAEDAATYYCQNDYSYPYTFGQGTKVEIKR
Competition Binding, 1st exp. (ranking) (PD-1 [1]): 8
Competition Binding, 2nd exp. (ranking) (PD-1 [2]): 16
Ranking, FACS data (PD-1 [3]): 3

B3: Clone No. 4 (antibody, human IgG4 S228P, kappa, V domains shown)
VH: EVQLVQSGAEVKKPGESLRISCKGSGYTFTTYWMHWIRQSPSRGLEWLGNIYPGTGGSNFDEKFKNRFTISRDNSKNTLYLQMNSLRAEDTAVYYCTRWTTGTGAYWGQGTTVTVSS
VL: B1 VL with Q48K, R51K, E76D, L79F, D87E, F89I
Competition Binding, 1st exp. (ranking) (PD-1 [1]): 15
Competition Binding, 2nd exp. (ranking) (PD-1 [2]): 15
Ranking, FACS data (PD-1 [3]): 14

B6: Clone No. 16 (antibody, human IgG4 S228P, kappa, V domains shown)
VH: B3 VH with I37V, S40A, S42G, R43Q, L48M
VL: EIVLTQSPDFQSVTPKEKVTITCKSSQSLLDSGNQKNFLTWYQQKPGQAPRLLIYWASTRESGVPSRFSGSGSGTDFTFTISSLEAEDAATYYCQNDYSYPYTFGQGTKVEIKR
Competition Binding, 1st exp. (ranking) (PD-1 [1]): 16
Competition Binding, 2nd exp. (ranking) (PD-1 [2]): 15
Ranking, FACS data (PD-1 [3]): 15

B7: Clone No. 3 (antibody, human IgG4 S228P, kappa, V domains shown)
VH: B3 VH
VL: DIQMTQSPSSLSASVGDRVTITCKSSQSLLDSGNQKNFLTWYQQKPGQAPRLLIYWASTRESGIPPRFSGSGYGTDFTLTINNIESEDAAYYFCQNDYSYPYTFGQGTKVEIKR
Competition Binding, 1st exp. (ranking) (PD-1 [1]): 8
Competition Binding, 2nd exp. (ranking) (PD-1 [2]): 14
Ranking, FACS data (PD-1 [3]): 7

Further lines, results first:

Competition Binding, 1st exp. (ranking) (PD-1 [1]): 3
Competition Binding, 2nd exp. (ranking) (PD-1 [2]): 2
Ranking, FACS data (PD-1 [3]): 6
B4: Clone No. 2 (antibody, human IgG4 S228P, kappa, V domains shown)
VH: B1 VH
VL: B7 VL

Competition Binding, 1st exp. (ranking) (PD-1 [1]): 5
Competition Binding, 2nd exp. (ranking) (PD-1 [2]): > 4
Ranking, FACS data (PD-1 [3]): 5
B5: Clone No. 5 (antibody, human IgG4 S228P, kappa, V domains shown)
VH: B1 VH
VL: B1 VL with Q48K, R51K, E76D, L79F, D87E, F89I
